According to US20210000969A1 (HUALAN GENETIC ENGINEERING, published 2021):

Target: T1, mouse PV-1 protein (mouse, UniProt Q91VC4 1-438, limits assumed)
T1 construct: The form tested is not described
T1 sequence: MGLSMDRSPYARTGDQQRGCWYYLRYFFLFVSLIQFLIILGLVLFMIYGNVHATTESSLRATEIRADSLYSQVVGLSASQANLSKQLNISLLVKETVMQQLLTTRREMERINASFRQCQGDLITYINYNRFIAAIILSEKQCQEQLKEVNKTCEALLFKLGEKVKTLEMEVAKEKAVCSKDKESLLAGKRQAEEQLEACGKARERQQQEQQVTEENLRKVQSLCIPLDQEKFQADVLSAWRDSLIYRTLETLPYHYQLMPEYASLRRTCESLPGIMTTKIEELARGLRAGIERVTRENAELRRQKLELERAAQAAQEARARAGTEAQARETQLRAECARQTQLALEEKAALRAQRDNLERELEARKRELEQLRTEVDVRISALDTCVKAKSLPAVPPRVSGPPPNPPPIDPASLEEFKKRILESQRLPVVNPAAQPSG
Assay: not described

B1: murine monoclonal antibody STW-139-15 (antibody, V domains shown)
VH: QVQLQQSGAELVKPGASVKLSCKASGYTFTDYYMYWVKQRPGQGLELIGEINPTNGDVNFNEMFKSKATLTVDTSSRTAYMQLSSLTSEDSAVYYCTSIHYWGQGTLVTVSA
VL: DIVMTQSPSSMYASLGERITITCKASQDIKTNLSWYQQKPWKSPKTLIYYATDLADGVPSRFSGSGSGQYFSLTISSLESDDTATYYCLQHDDRPFTFGSGTKLEIK
- binding result: no binding
